Assay results taken from PMC5356539.
Several values for one entry are separate records, joined by “and”; a condition that tells them apart may be missing. Equal entries are not always repeated.

Tests used:
Assay in all cases: plate binding assay (luminescent)
poly-ornithine = conditions: miRNA species not given; 3'-biotinylated cytidine (bis)phosphate ligated; ELISA plate-immobilized protein, BSA block; PBS with or without 0.5 mM MgCl2, or HBSS with 1.26 mM Ca2+ and 0.9 mM Mg2+; neutral pH; 2 h at 37 C or overnight
AGO2 full-length (human) = conditions: Ca2+ and Mg2+; 3'-biotinylated cytidine (bis)phosphate ligated; ELISA plate-immobilized protein, BSA block; PBS with or without 0.5 mM MgCl2, or HBSS with 1.26 mM Ca2+ and 0.9 mM Mg2+; neutral pH; 2 h at 37 C or overnight …
sNRP1 (human) = sNRP1 (human) (UniProt O14786); conditions: 3'-biotinylated cytidine (bis)phosphate ligated, ELISA plate-immobilized protein, BSA block, PBS with or without 0.5 mM MgCl2, or HBSS with 1.26 mM Ca2+ and 0.9 mM Mg2+, neutral pH, 2 h at 37 C or overnight …
NRP1-Fc (rat) = conditions: 3'-biotinylated cytidine (bis)phosphate ligated; ELISA plate-immobilized protein, BSA block; PBS with or without 0.5 mM MgCl2, or HBSS with 1.26 mM Ca2+ and 0.9 mM Mg2+; neutral pH; 2 h at 37 C or overnight …

Chain of sNRP1 (human) (O14786 22-640): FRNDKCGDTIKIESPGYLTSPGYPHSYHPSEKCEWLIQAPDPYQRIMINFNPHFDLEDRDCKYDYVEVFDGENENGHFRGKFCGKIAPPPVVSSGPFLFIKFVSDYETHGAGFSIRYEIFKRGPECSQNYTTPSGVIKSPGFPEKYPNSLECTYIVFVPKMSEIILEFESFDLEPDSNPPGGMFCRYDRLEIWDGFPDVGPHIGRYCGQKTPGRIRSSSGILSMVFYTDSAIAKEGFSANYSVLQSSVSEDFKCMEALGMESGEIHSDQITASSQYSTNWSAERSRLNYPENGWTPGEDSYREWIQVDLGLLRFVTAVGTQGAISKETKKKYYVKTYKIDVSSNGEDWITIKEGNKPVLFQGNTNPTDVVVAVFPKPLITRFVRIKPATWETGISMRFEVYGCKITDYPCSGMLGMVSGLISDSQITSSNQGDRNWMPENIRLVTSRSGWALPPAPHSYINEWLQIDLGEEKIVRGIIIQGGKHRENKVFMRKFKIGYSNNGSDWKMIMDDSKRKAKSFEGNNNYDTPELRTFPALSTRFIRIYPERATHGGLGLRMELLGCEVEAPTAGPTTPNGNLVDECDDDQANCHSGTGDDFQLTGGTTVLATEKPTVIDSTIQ

miR-20a showed a Kd (poly-ornithine) of 6.67 nM and a Kd (AGO2 full-length (human)) of 7.27 nM.
For miR-138, the Kd (sNRP1 (human); 0.9 mM Mg2+, 1.2 mM Ca2+ (1.26 in Methods)) was 0.772 nM and the Kd (sNRP1 (human)) was 0.348 nM.
Work on miR-331 yielded a Kd (NRP1-Fc (rat)) of 0.911 nM.
miR-422 was tested, and the Kd (sNRP1 (human)) was 0.344 nM and 0.138 nM.
